In PMC2874997 (Nucleic Acids Research, 2010):
Read-outs that look alike come from different tables or passages of the source.

What was measured:
DnaBN, DnaB(1-300) [1] = target: T1, DnaBN, DnaB(1-300) (Bacillus subtilis, UniProt P07908 1-300); test: EMSA
T1 sequence: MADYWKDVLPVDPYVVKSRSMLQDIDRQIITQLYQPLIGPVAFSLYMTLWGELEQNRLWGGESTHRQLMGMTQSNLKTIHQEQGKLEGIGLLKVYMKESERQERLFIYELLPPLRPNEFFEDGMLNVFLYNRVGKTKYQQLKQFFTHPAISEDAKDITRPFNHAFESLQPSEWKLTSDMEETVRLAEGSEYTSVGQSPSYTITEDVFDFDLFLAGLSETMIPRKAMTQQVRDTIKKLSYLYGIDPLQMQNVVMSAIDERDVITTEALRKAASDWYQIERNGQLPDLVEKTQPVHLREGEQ

DnaB (native) [2] = target: T2, DnaB (native) (Bacillus subtilis, UniProt P07908 1-472); test: EMSA
T2 sequence: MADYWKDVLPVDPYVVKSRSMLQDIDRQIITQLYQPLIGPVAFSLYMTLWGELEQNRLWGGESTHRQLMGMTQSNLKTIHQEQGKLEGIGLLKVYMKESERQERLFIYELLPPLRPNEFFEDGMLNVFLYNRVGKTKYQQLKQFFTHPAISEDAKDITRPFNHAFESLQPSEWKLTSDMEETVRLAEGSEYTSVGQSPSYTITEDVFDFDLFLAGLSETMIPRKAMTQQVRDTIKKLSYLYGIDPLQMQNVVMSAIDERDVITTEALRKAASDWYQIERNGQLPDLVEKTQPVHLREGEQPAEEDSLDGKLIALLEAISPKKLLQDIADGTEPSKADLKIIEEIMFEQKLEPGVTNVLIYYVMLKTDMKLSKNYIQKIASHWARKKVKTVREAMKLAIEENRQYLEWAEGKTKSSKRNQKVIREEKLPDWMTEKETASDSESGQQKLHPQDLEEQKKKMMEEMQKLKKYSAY

AUC [3] = target: the molecule itself; test: AUC
DnaBN, DnaB(1-300) [4] = target: T1, DnaBN, DnaB(1-300); test: EMSA; remark: listed apart in the source
AUC [5] = target: the molecule itself; test: AUC; remark: listed apart in the source
DnaB (native) [6] = target: T2, DnaB (native); test: EMSA; remark: listed apart in the source
DnaBN, DnaB(1-300) [7] = target: T1, DnaBN, DnaB(1-300); test: EMSA; remark: listed apart in the source

B1: dT90 (ssDNA)
DNA: TTTTTTTTTTTTTTTTTTTTTTTTTTTTTTTTTTTTTTTTTTTTTTTTTTTTTTTTTTTTTTTTTTTTTTTTTTTTTTTTTTTTTTTTTT
DnaBN, DnaB(1-300) [1]
  binding result: binds
DnaB (native) [2]
  binding result: binds

B2: DnaB(1-365), C-terminally truncated DnaB (domain or fragment, B. subtilis, UniProt P07908 1-365, looked up)
chain: MADYWKDVLPVDPYVVKSRSMLQDIDRQIITQLYQPLIGPVAFSLYMTLWGELEQNRLWGGESTHRQLMGMTQSNLKTIHQEQGKLEGIGLLKVYMKESERQERLFIYELLPPLRPNEFFEDGMLNVFLYNRVGKTKYQQLKQFFTHPAISEDAKDITRPFNHAFESLQPSEWKLTSDMEETVRLAEGSEYTSVGQSPSYTITEDVFDFDLFLAGLSETMIPRKAMTQQVRDTIKKLSYLYGIDPLQMQNVVMSAIDERDVITTEALRKAASDWYQIERNGQLPDLVEKTQPVHLREGEQPAEEDSLDGKLIALLEAISPKKLLQDIADGTEPSKADLKIIEEIMFEQKLEPGVTNVLIYYVMLK
AUC [3]
  stoichiometry N: 4

B3: DnaB(1-428), C-terminally truncated DnaB (domain or fragment, B. subtilis, UniProt P07908 1-428, looked up)
chain: MADYWKDVLPVDPYVVKSRSMLQDIDRQIITQLYQPLIGPVAFSLYMTLWGELEQNRLWGGESTHRQLMGMTQSNLKTIHQEQGKLEGIGLLKVYMKESERQERLFIYELLPPLRPNEFFEDGMLNVFLYNRVGKTKYQQLKQFFTHPAISEDAKDITRPFNHAFESLQPSEWKLTSDMEETVRLAEGSEYTSVGQSPSYTITEDVFDFDLFLAGLSETMIPRKAMTQQVRDTIKKLSYLYGIDPLQMQNVVMSAIDERDVITTEALRKAASDWYQIERNGQLPDLVEKTQPVHLREGEQPAEEDSLDGKLIALLEAISPKKLLQDIADGTEPSKADLKIIEEIMFEQKLEPGVTNVLIYYVMLKTDMKLSKNYIQKIASHWARKKVKTVREAMKLAIEENRQYLEWAEGKTKSSKRNQKVIREEKLP
AUC [3]
  stoichiometry N: 4

B4: dT135 (ssDNA)
DNA: TTTTTTTTTTTTTTTTTTTTTTTTTTTTTTTTTTTTTTTTTTTTTTTTTTTTTTTTTTTTTTTTTTTTTTTTTTTTTTTTTTTTTTTTTTTTTTTTTTTTTTTTTTTTTTTTTTTTTTTTTTTTTTTTTTTTTTT
DnaBN, DnaB(1-300) [4]
  binding result: binds
DnaB (native) [2]
  binding result: binds

B5: DnaBN, DnaB residues 1-300 (N-terminal domain plus the central domain) (domain or fragment, B. subtilis, UniProt P07908 1-300, looked up)
chain: MADYWKDVLPVDPYVVKSRSMLQDIDRQIITQLYQPLIGPVAFSLYMTLWGELEQNRLWGGESTHRQLMGMTQSNLKTIHQEQGKLEGIGLLKVYMKESERQERLFIYELLPPLRPNEFFEDGMLNVFLYNRVGKTKYQQLKQFFTHPAISEDAKDITRPFNHAFESLQPSEWKLTSDMEETVRLAEGSEYTSVGQSPSYTITEDVFDFDLFLAGLSETMIPRKAMTQQVRDTIKKLSYLYGIDPLQMQNVVMSAIDERDVITTEALRKAASDWYQIERNGQLPDLVEKTQPVHLREGEQ
AUC [5]
  Kd: 500 nM
  stoichiometry N: 4

## TTTTTTTTTTTTTTTTTTTTTTTTTTTTTTTTTTTTTTTTTTTTT (ssDNA) [dT45]
DnaB (native) [6]
  binding result: binds
DnaBN, DnaB(1-300) [7]
  binding result: binds
